Test results as given in US20090054342A1 (COMPUGEN, published 2009).
Blank lines part the entries; values can stand above or below the molecule they belong to. No end group written: not given here.

Columns and labels:
[1] = biological target: MrgX1 (Mas-related G-protein coupled receptor member X1) (UniProt Q96LB2); assay: cell-based or functional assay
[2] = biological target: T1, FPRL1 (FPR-related receptor 1) (UniProt P25090 1-351, limits assumed); assay: competitive radioligand binding against 0.025 nM [125I] WKYMVm on FPRL1-transfected CHO cells, 90 min at 25 C
T1 construct: whole, on cells; Expressed in CHO cells (with Gα16 in the calcium flux assay); also called lipoxin A4 receptor; LXA4R
T1 sequence (looked up): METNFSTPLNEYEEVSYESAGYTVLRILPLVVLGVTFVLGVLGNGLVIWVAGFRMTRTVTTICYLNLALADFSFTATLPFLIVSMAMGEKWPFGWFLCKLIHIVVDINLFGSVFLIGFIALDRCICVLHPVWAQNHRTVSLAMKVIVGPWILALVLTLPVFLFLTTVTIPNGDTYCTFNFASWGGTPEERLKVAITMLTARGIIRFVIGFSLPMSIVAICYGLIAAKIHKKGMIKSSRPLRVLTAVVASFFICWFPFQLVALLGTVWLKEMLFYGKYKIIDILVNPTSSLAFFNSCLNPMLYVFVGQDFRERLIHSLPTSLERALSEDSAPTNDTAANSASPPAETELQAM
Experimental: The specific binding of Peptide 58 (SEQ ID NO:1) to FPRL1 was analyzed by testing its ability to compete with 0.025 nM [¹²⁵I] WKYMVm (W peptide), a known agonist of FPRL1, for binding to FPRL1 in CHO transfected cells. CKβ8-1 (aa 46-137), another known ligand of FPRL1 was used as a positive control in this assay (Chiang et al 2006, Pharmacological Reviews 58, 463-487). Peptides were incubated with cells for 90 minutes at 25° C., in the presence of Incubation Buffer (50 mM HEPES, pH 7.4, 100 mM NaCl, 5 mM KCl, 5 mM MgCl2, 2 mM Ca C12, 0.5% BSA) and the amount of radioactive W peptide was measured.

Mas receptor = biological target: T2, Mas receptor (UniProt P04201 1-325, limits assumed); assay: cell-based or functional assay
T2 sequence (looked up): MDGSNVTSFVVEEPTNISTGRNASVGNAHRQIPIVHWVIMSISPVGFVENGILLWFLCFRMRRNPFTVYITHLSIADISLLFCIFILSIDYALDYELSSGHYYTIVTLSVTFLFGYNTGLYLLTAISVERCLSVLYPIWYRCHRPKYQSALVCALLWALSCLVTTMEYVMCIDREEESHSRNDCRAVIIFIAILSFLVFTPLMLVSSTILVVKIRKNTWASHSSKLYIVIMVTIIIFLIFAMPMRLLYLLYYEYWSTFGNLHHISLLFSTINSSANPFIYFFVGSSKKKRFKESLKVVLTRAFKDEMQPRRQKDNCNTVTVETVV

[3] = biological target: MrgX1 (Mas-related G-protein coupled receptor member X1) (UniProt Q96LB2 1-322, limits assumed); assay: cell-based or functional assay
Sequence of MrgX1 (Mas-related G-protein coupled receptor member X1) (UniProt Q96LB2 1-322, limits assumed) (Q96LB2 whole entry): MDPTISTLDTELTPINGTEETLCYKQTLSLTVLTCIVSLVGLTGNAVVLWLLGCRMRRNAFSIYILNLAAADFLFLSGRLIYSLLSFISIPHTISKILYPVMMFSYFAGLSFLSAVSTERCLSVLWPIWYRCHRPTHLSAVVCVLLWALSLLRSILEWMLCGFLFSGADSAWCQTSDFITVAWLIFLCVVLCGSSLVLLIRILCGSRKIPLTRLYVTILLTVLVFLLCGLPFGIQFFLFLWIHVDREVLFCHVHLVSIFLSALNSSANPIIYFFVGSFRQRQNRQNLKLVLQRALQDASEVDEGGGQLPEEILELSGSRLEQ

Sequence of MrgX1 (Mas-related G-protein coupled receptor member X1) (UniProt Q96LB2) (Q96LB2 whole entry): as above

Molecule: BAM22 (bovine adrenal medulla peptide 22) (from UniProt P01211 206-227)
EC50 (calcium flux dose response) [1]: > 50 nM

B1: Peptide 58 (peptide)
peptide: TIPMFVPESTSKLQKFTSWFM-NH2
notes: Synthetic peptide (SPPS); also called P58; peptide P58
IC50 [2]: 189 nM
Ki [2]: 54.1 nM

B4: Peptide 61_S (peptide)
peptide: FLGYSIYLNRKRRGDPAFKRRLRD
EC50 (calcium flux dose response) (Mas receptor): ≥ 500 nM

The next lines start with the values.

EC50 (calcium flux dose response) (Mas receptor): ≥ 1000 nM
B2: Peptide 33_V (peptide)
peptide: SMVHRWSRAVLFPAAHRP
modifications: also: acetate salt

EC50 (calcium flux dose response) [3]: ≥ 300 nM
B3: Peptide 60_S (peptide)
peptide: GIGSVWHWKHRVATRFTLPRFLQ
